B1: GITR-Mab-29 scFv (scFv, V domains shown)
VH: QVQLVQSGAEVKKPGASVKVSCKASGYTFSSDYIHWVRQAPGQGLEWMGRINPSGGSTLYARRFQGRVTMTRDTSTSTVYMELSSLRSEDTAVYYCARERGAADTWYFDLWGRGTLVTVSS
VL: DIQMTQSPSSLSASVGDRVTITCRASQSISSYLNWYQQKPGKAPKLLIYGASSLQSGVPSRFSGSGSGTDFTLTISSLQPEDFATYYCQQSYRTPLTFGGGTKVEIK
notes: scFv in periplasmic extract, V5 tag
B2: GITR-Mab-34 scFv (scFv, V domains shown)
VH: EVQLLESGGGLVQPGGSLRLSCAASGFTFSSYWMHWVRQAPGKGLEWVSVISNSGGATYYADSVKGRFTISRDNSKNTLYLQMNSLRAEDTAVYYCAREGWGYGMDVWGQGTTVTVSS
VL: DIQMTQSPSSLSASVGDRVTITCRASQDIRNYLAWYQQKPGKAPKLLIYTASTLQSGVPSRFSGSGSGTDFTLTISSLQPEDFATYYCQQTFRTPLTFGGGTKVEIK
notes: as for B1
B3: GITR-Mab-45 scFv (scFv, V domains shown)
VH: QVQLVQSGAEVKKPGASVKVSCKASGYTFTSYGISWVRQAPGQGLEWMGWMNPNSGNTGYAQKFQGRVTMTRDTSTSTVYMELSSLRSEDTAVYYCAREVYGDLDYWGQGTLVTVSS
VL: DIQMTQSPSSLSASVGDRVTITCRASQGIDNWLAWYQQKPGKAPKLLIYGASTLQSGVPSRFSGSGSGTDFTLTISSLQPEDFATYYCQQSYTARFTFGPGTKVDIK
notes: as for B1
B4: GITR-Mab-37 scFv (scFv, V domains shown)
VH: QVQLVQSGAEVKKPGASVKVSCKASGYTFTSYYMHWVRQAPGQGLEWMGWINPNSGGTNYAQKFQGRVTMTRDTSTSTVYMELSSLRSEDTAVYYCASPGDYCSGGSCYSDDAFDIWGQGTMVTVSS
VL: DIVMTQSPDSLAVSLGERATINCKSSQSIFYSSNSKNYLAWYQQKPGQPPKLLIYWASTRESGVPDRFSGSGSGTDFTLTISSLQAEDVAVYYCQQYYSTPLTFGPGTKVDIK
notes: as for B1
B5: GITR-Mab-30 scFv (scFv, V domains shown)
VH: QVQLVQSGAEVKKPGASVKVSCKASGGTFSSYAISWVRQAPGQGLEWMGIIDPTGGATAYAQEFQGRVTMTRDTSTSTVYMELSSLRSEDTAVYYCARVGYYYGMDVWGQGTMVTVSS
VL: not shown
notes: as for B1
B6: GITR-Mab-32 scFv (scFv, V domains shown)
VH: QVQLVQSGAEVKKPGASVKVSCKASGGTFSSYAISWVRQAPGQGLEWMGWMNPNSGDTGYAQKFQGRVTMTRDTSTSTVYMELSSLRSEDTAVYYCARGPWYFDLWGRGTLVTVSS
VL: DIQMTQSPSSLSASVGDRVTITCRVSQGISNSLAWYQQKPGKAPKLLIYAASSLQSGVPSRFSGSGSGTDFTLTISSLQPEDFATYYCQQSYSTVYTFGQGTKLEIK
notes: as for B1
B7: GITR-Mab-38 scFv (scFv, V domains shown)
VH: QVQLVQSGAEVKKPGASVKVSCKASGGTFRNYAINWVRQAPGQGLEWMGWMNPNSGNTGYAQKFQGRVTMTRDTSTSTVYMELSSLRSEDTAVYYCAREDVDTASQAYFDYWGQGTLVTVSS
VL: B6 VL with V25A, S32Y, A50S, S53N, S91G, T94S, V95R
notes: as for B1
B8: GITR-Mab-33 scFv (scFv, V domains shown)
VH: EVQLLESGGGLVKPGGSLRLSCAASGFMFSSYSMNWVRQAPGKGLEWVSYISGNSGYTNYADSVKGRFTISRDDSKNTLYLQMNSLKTEDTAVYYCARRLHGMDVWGQGTTVTVSS
VL: DIQMTQSPSSLSASVGDRVTITCRASQSISTWLAWYQQKPGKAPKLLIYDASNLETGVPSRFSGSGSGTDFTLTISSLQPEDFATYYCQQAYRFPVAFGGGTKVEIK
notes: as for B1
B9: GITR-Mab-1 scFv (scFv, V domains shown)
VH: QVQLVQSGAEVKKPGASVKVSCKASGYTFTNYHLHWVRQAPGQGLEWMGMINPNDGSTTYAQKFQGRVTMTRDTSTSTVYMELSSLRSEDTAVYYCARSTYYYDSSGYYYYYYGMDVWGQGTTVTVSS
VL: EIVMTQSPATLSVSPGERATLSCRASQSVYSNYLAWYQQKPGQAPRLLIYGASTRATGIPARFSGSGSGTEFTLTISSLQSEDFAVYYCQQYHSYPLTFGGGTKVEIK
notes: as for B1
B10: GITR-Mab-28 scFv (scFv, V domains shown)
VH: QVQLVQSGAEVKKPGASVKVSCKASGYTFPNYGITWVRQAPGQGLEWMGWMNPNSGYTGYAQNFQGRVTMTRDTSTSTVYMELSSLRSEDTAVYYCARGMPGRGFDPWGQGTLVTVSS
VL: B9 VL with Y30S, S94T, L97P, G101Q, V105L
notes: as for B1
B11: GITR-Mab-31 scFv (scFv, V domains shown)
VH: QVQLVQSGAEVKKPGSSVKVSCKASGGTFSSYAISWVRQAPGQGLEWMGGIIPISSATSIPQKFQGRVTITADESTSTAYMELSSLRSEDTAVYYCARSYDSRYYGMDVWGQGTTVTVSS
VL: B9 VL with S28T, Y30G, N32R, H93Y, Y95T, L97W, G101Q, K104R, V105L
notes: as for B1
B12: GITR-Mab-36 scFv (scFv, V domains shown)
VH: QVQLVQSGAEVKKPGASVKVSCKASGYTFTRNYIHWVRQAPGQGLEWMGWINPKSGGTKYAQKFQGRVTMTRDTSTSTVYMELSSLRSEDTAVYYCARESGVVATEYWYFDLWGRGTLVTVSS
VL: not shown
notes: as for B1
B13: GITR-Mab-27 scFv (scFv, V domains shown)
VH: QVQLVQSGAEVKKPGASVKVSCKASGYTFTSYDINWVRQAPGQGLEWIGWMNTNSGDTGYAQKFQGRVTMTRDTSTSTVYMELSSLRSEDTAVYYCARQAYSSSWYWYGWFDPWGQGTLVTVSS
VL: DIQMTQSPSSLSASVGDRVTITCQASHDIDNYLNWYQQKPGKAPKLLIYAASNLQSGVPSRFSGSGSGTDFTLTISSLQPEDFATYYCQQANSFPLTFGPGTKVDIK
notes: as for B1
B14: GITR-Mab-35 scFv (scFv, V domains shown)
VH: QVQLVQSGAEVKKPGASVKVSCKASGYTFTNYYMHWVRQAPGQGLEWMGLITPSGGRTKYAQKFQGRVTMTRDTSTSTVYMELSSLRSEDTAVYYCAREMEYSSSWYWFDPWGQGTLVTVSS
VL: B2 VL with R24Q, D28G, R30S, N31S, A34N, T50A, T91S, F92Y, R93S
notes: as for B1
B15: GITR-Mab-4 scFv (scFv, V domains shown)
VH: EVQLLESGGGLVQPGGSLRLSCAASGFTFSSYDMHWVRQAPGKGLEWVSAISSSGGSIYYADSVKGRFTISRDNSKNTLYLQMNSLRAEDTAVYYCARDSVVVPKGPNRKYYYYGMDVWGQGTKVTVSS
VL: not shown
notes: as for B1

For 15 molecules, hGITR-His/BKG, cGITR-His/BKG and mGITR-His/BKG results are on record in patent US20220106398A1 (IGM BIOSCIENCES, published 2022).

Numbering of substitutions follows the chain as printed.

For the first experiment, the target named is T1, human His6-GITR (human, UniProt Q9Y5U5 26-162).
T1 construct: His6-tagged recombinant protein; also called hGITR-His; human GITR-His
T1 sequence: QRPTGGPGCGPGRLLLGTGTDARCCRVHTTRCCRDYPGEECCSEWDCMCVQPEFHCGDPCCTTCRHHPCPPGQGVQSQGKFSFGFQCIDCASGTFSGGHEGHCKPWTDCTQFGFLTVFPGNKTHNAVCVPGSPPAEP
Description: ELISA, scFv periplasmic extract on coated His6-GITR. As for the experimental part: (§1) The SuperHuman-2.0 scFv Antibody Library (available from Distributed Bio, South San Francisco, Calif.) was used to perform selection with human, cynomolgus or mouse GITR proteins. Selected phage clones from overnight growth were inoculated into wells in 96 well deep well plates containing 1 mL of medium. scFv expression was induced by addition of IPTG (Teknova) to a final concentration of 1 mM. Plates were grown overnight after induction. To prepare periplasmic extracts (PPE), the plates containing the phage clones were centrifuged at 2500 rpm for 10 min, the supernatant discarded and then pellets treated with 75 μL of cold periplasmic extract buffer with appropriate concentration of protease inhibitors (Complete Mini, EDTA-free -Roche Applied Biosciences—Cat No 1836170). After shaking at room temperature for 10 min, 225 μL of cold ddH2O with added protease inhibitor (1 tablet/50 mL) was added per well and mixed by pipetting up and down. PPE extraction was completed by incubation at room temperature for an additional 1 hr. The plates were then centrifuged at 4000 rpm for 20 minutes and 200 μL of PPE supernatant was collected from each well and transferred to a new plate which was then blocked with equal volume of 4% milk (2% final) to prepare blocked PPE extracts. In the meantime, Maxisorp plates (Nunc 442404) coated with relevant antigen (human, mouse or cynomolgus monkey His6-GITR) at 50 μl/well of 1 μg/mL antigen or 2% BSA in PBS as control were prepared for ELISA analyses. Next, 50 μL of each blocked PPE extract was transferred to the pre-blocked ELISA plates coated with the relevant antigens. After incubation and washing 3× with PBS, 50 μL of anti-V5 tag antibody (tag included in the phage display constructs, Invitrogen Cat No R960-25) at 1:5000 dilution in 2% milk was added and the plates were incubated for 1 hr. […] After further washing 3× with PBST, 50 μl/well of TMB substrate was added and the plates were developed until positive controls were visible. The reaction was stopped with 50 μl/well of 2N H2SO4. Plates were read at 450 nm to determine ELISA signal from bound PPE derived scFv.
(In general: An ELISA detects its analyte on a solid surface through an enzyme-linked reagent.)
Molecule B1 gave a hGITR-His/BKG of 12.4 fold over background.

The molecule B2 displayed a hGITR-His/BKG of 7.7 fold over background.

Molecule B3 came in with a hGITR-His/BKG of 1.4 fold over background.

The molecule B4 registered a hGITR-His/BKG of 13.2 fold over background.

As for B5, the hGITR-His/BKG was found to be 18.7 fold over background.

In turn, B6 had a hGITR-His/BKG of 18 fold over background.

Molecule B7 came in with a hGITR-His/BKG of 2.9 fold over background.

As to B8, the hGITR-His/BKG was 17.7 fold over background.

In turn, B9 yielded a hGITR-His/BKG of 13.2 fold over background.

In turn, B10 had a hGITR-His/BKG of 11.5 fold over background.

Turning to B11, the hGITR-His/BKG worked out at 17.7 fold over background.

With B12, the hGITR-His/BKG was 8.8 fold over background.

Molecule B13 came in with a hGITR-His/BKG of 24.6 fold over background.

For B14, the hGITR-His/BKG was 25.3 fold over background.

B15: the hGITR-His/BKG is 9.6 fold over background.

Another experiment deals with T2, cynomolgus monkey His6-GITR (cynomolgus monkey).
T2 construct: His6-tagged recombinant protein; also called cGITR-His; cyno GITR-His
T2 chain: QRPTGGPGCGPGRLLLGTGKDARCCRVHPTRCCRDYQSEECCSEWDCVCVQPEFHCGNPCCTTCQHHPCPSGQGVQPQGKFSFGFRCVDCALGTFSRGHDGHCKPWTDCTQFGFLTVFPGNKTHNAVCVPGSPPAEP
Described as above. As to the method:
as §1
On to B1, for which the cGITR-His/BKG was 1.1 fold over background.

B2 had a cGITR-His/BKG of 1.1 fold over background.

With B4, the cGITR-His/BKG is 11.7 fold over background.

B5 gave a cGITR-His/BKG of 1 fold over background.

For B6, the cGITR-His/BKG was 4.9 fold over background.

Molecule B8 displayed a cGITR-His/BKG of 1.3 fold over background.

Turning to B9, the cGITR-His/BKG came out at 15.8 fold over background.

The molecule B10 showed a cGITR-His/BKG of 1 fold over background.

In turn, B11 had a cGITR-His/BKG of 1.2 fold over background.

For B12, the cGITR-His/BKG came out at 1.4 fold over background.

B13 yielded a cGITR-His/BKG of 1 fold over background.

Turning to B14, the cGITR-His/BKG is 0.9 fold over background.

B15: the cGITR-His/BKG was 10.3 fold over background.

The target of a further experiment is T3, mouse His6-GITR (mouse, UniProt O35714 20-153).
T3 construct: His6-tagged recombinant protein; also called mGITR-His; mouse GITR-His
T3 sequence: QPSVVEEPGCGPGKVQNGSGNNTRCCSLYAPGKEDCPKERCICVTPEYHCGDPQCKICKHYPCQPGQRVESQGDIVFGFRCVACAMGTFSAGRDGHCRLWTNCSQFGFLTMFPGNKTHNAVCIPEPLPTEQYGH
The experiment is described as above. As to the method:
as §1
The molecule B1 returned a mGITR-His/BKG of 1 fold over background.

B2 had a mGITR-His/BKG of 1.2 fold over background.

B3 came in with a mGITR-His/BKG of 4.5 fold over background.

B4 had a mGITR-His/BKG of 13.7 fold over background.

The molecule B5 gave a mGITR-His/BKG of 1 fold over background.

As to B6, the mGITR-His/BKG turned out to be 1 fold over background.

B8: the mGITR-His/BKG came to 1 fold over background.

Regarding B9, the mGITR-His/BKG amounted to 1.1 fold over background.

B10 displayed a mGITR-His/BKG of 1 fold over background.

B11 came in with a mGITR-His/BKG of 1.2 fold over background.

In the case of B12, the mGITR-His/BKG came to 0.9 fold over background.

As to B13, the mGITR-His/BKG worked out at 1.3 fold over background.

With B14, the mGITR-His/BKG stood at 0.9 fold over background.

Turning to B15, the mGITR-His/BKG is 16.1 fold over background.
